Reference: US20180319855A1, “GENETICALLY MUTATED AEQUORIN-BASED BIOSENSORS WITH EXTRA SENSITIVITY TO CALCIUM AND IMPROVED BIOLUMINESCENCE INTENSITY” (CENTRE NATIONAL DE LA RECHERCHE SCIENTIFIQUE (CNRS), priority 2015, published 2018)

Assay: Ca2+ sensitivity curves of reconstituted photoproteins (L/Lmax vs free Ca2+)
Type: biochemical
Settings: for affinity to calcium group relative to Aeq-wt / Relative intensity at pCa 6.5 / Relative intensity at pCa 7.2: CLZ-f; for affinity to calcium group relative to Aeq-wt: at pCa 6.5, FIG. 2; for Relative intensity at pCa 6.5 / Relative intensity at pCa 7.2: L/Lmax compared to Aeq-wt; for EC50: aequorin proteins reconstituted with CLZ-f, sigmoidal curve fit, mean ± SD, n at least 3, read-out: Calcium sensitivity, EC50
Procedure: For in vitro reconstitution, the purified and concentrated samples of apoaequorin and redquorin mutant proteins were buffer-exchanged to 50 mM Tris-HCl (pH 7.5), 150 mM NaCl, 10 mM EGTA, 5 mM ß-mercaptoethanol, supplemented with 5 μM CLZ-f or CLZ-native and incubated overnight at 4° C., in the dark. The next day, samples were passed through molecular weight cut-offs (AmiconUitra MWCO, 10K and 50K, from Millipore), then resuspended in Zero-Ca^2+ buffer (30 mM MOPS, 100 mM KCl and 10 mM EGTA, pH 7.2) for calcium affinity, emission decay kinetics and spectral analysis assays. As for in cellulo reconstitution, HEK cells transiently expressing the proteins of apoaequorin and aporedquorin mutants were washed twice with Hank's Balanced Salt Solution (HBSS) and incubated in the dark, with 4 μM of the desired CLZ diluted in OptiMEM I medium (Gibco), for 2-3h at 37° C. and 5% CO2. Cells were washed once and maintained in HBSS at 37° C. for 20 min before the experiment.
Functional Analysis of Aequorin Mutants and Fusions Ca^2+ Sensitivity Curves.
Purified and reconstituted samples with CLZ-f or CLZ-native already buffered-exchanged to zero-calcium buffer ensured to minimize calcium contamination that could interfere with the measurements. Fifteen microliter aliquot of photoprotein samples (concentration range, 50 to 90 ng/μl) was placed in a home-made luminometer and mixed with 300 μl solution containing the desired concentration of free-Ca^2+. The solutions of EGTA-buffered with varying free-Ca^2+ prepared according to the manufacturer instruction for the kit (Molecular Probes, Invitrogen). Integration of the luminescence emission (per second) was measured for 20 seconds (background) before injecting a solution with known [free-Ca^2+] and lasted until stable or decaying signal (at final-phase) was obtained. At this point, 400 μl of a saturating calcium solution (30 mM MOPS, 100 mM CaCl2, pH 7.2) was rapidly injected (less than 30 ms) and light integration continued until all aequorin had been consumed and light intensity had gone back to background signal. Luminescence intensity (L) at different [Ca^2+] was taken as the response peak value in case of decaying signal or as the stable value in case of stable emission. Lmax, was measured by integrating all remaining luminescence signal from that moment (L value) to the end of the experiment. The EC50 values were extracted from a sigmoidal dose-response fit (variable slope) using GraphPad Prism software.

Molecule | affinity to calcium group relative to Aeq-wt | Relative intensity at pCa 6.5 | Relative intensity at pCa 7.2 | EC50
S157A: aequorin single mutant S157A, low calcium affinity (protein) SKLTSDFDNPRWIGRHKHMFNFLDVNHNGKISLDEMVYKASDIVINNLGATPEQAKRHKDAVEAFFGGAGMKYGVETDWPAYIEGWKKLATDELEKYAKNEPTLIRIWGDALFDIVDKDQNGAITLDEWKAYTKAAGIIQSSEDCEETFRVCDIDEAGQLDVDEMTRQHLGFWYTMDPACEKLYGGAVP | low |  |  | 
Q140R: aequorin single mutant Q140R, low calcium affinity (protein) SKLTSDFDNPRWIGRHKHMFNFLDVNHNGKISLDEMVYKASDIVINNLGATPEQAKRHKDAVEAFFGGAGMKYGVETDWPAYIEGWKKLATDELEKYAKNEPTLIRIWGDALFDIVDKDQNGAITLDEWKAYTKAAGIIRSSEDCEETFRVCDIDESGQLDVDEMTRQHLGFWYTMDPACEKLYGGAVP | low |  |  | 
QT + AD: apoaequorin double mutant Q159T + A123D (SEQ ID NO:16) (protein, mutant aequorin) SKLTSDFDNPRWIGRHKHMFNFLDVNHNGKISLDEMVYKASDIVINNLGATPEQAKRHKDAVEAFFGGAGMKYGVETDWPAYIEGWKKLATDELEKYAKNEPTLIRIWGDALFDIVDKDQNGDITLDEWKAYTKAAGIIQSSEDCEETFRVCDIDESGTLDVDEMTRQHLGFWYTMDPACEKLYGGAVP |  | 22.8 | 10.0 | 279 nM
S157T: aequorin single mutant S157T, medium-low calcium affinity (protein) SKLTSDFDNPRWIGRHKHMFNFLDVNHNGKISLDEMVYKASDIVINNLGATPEQAKRHKDAVEAFFGGAGMKYGVETDWPAYIEGWKKLATDELEKYAKNEPTLIRIWGDALFDIVDKDQNGAITLDEWKAYTKAAGIIQSSEDCEETFRVCDIDETGQLDVDEMTRQHLGFWYTMDPACEKLYGGAVP | medium-low |  |  | 
QT + AT: apoaequorin double mutant Q159T + A179T (SEQ ID NO:18) (protein, mutant aequorin) SKLTSDFDNPRWIGRHKHMFNFLDVNHNGKISLDEMVYKASDIVINNLGATPEQAKRHKDAVEAFFGGAGMKYGVETDWPAYIEGWKKLATDELEKYAKNEPTLIRIWGDALFDIVDKDQNGAITLDEWKAYTKAAGIIQSSEDCEETFRVCDIDESGTLDVDEMTRQHLGFWYTMDPTCEKLYGGAVP |  | 29.0 | 14.0 | 281 ± 25 nM
QT + ND: apoaequorin double mutant Q159T + N121D (SEQ ID NO:14) (protein, mutant aequorin) SKLTSDFDNPRWIGRHKHMFNFLDVNHNGKISLDEMVYKASDIVINNLGATPEQAKRHKDAVEAFFGGAGMKYGVETDWPAYIEGWKKLATDELEKYAKNEPTLIRIWGDALFDIVDKDQDGAITLDEWKAYTKAAGIIQSSEDCEETFRVCDIDESGTLDVDEMTRQHLGFWYTMDPACEKLYGGAVP |  | 14.4 | 12.2 | 337 ± 10 nM
